Measured values from PMC12463560.

Biological target: PEDV-S1 protein fused with an Fc region (PEDV-S1-Fc protein) (porcine epidemic diarrhea virus | human)
Assay: SDS-PAGE under reducing and non-reducing conditions; purified proteins loaded with (+) or without (-) beta-mercaptoethanol, Coomassie stained; shows disulfide-linked dimers only

Work on “PEDV-S1 protein fused with an Fc region (PEDV-S1-Fc protein) (Fc fusion)” yielded a stoichiometry N of 2.
